Data from publication PMC8158037.

Target: δ-toxin (secreted by S. aureus MW2 and its ΔPSMα strain) (Staphylococcus aureus MW2)
Experiment: AUC + SEC-MALS + native MS + cross-linking

δ-toxin (secreted by S. aureus MW2 and its ΔPSMα strain) (peptide)
stoichiometry N: 8
